IntAct's records for PubMed 11854419

B1: COP9 signalosome complex subunit 1 (Arabidopsis thaliana (Mouse-ear cress)), P45432 (parent)
chain: MERDEEASGPMMEMCTNGGEETSNRRPIISGEPLDIEAYAALYKGRTKIMRLLFIANHCGGNHALQFDALRMAYDEIKKGENTQLFREVVNKIGNRLGEKYGMDLAWCEAVDRRAEQKKVKLENELSSYRTNLIKESIRMGYNDFGDFYYACGMLGDAFKNYIRTRDYCTTTKHIIHMCMNAILVSIEMGQFTHVTSYVNKAEQNPETLEPMVNAKLRCASGLAHLELKKYKLAARKFLDVNPELGNSYNEVIAPQDIATYGGLCALASFDRSELKQKVIDNINFRNFLELVPDVRELINDFYSSRYASCLEYLASLKSNLLLDIHLHDHVDTLYDQIRKKALIQYTLPFVSVDLSRMADAFKTSVSGLEKELEALITDNQIQARIDSHNKILYARHADQRNATFQKVLQMGNEFDRDVRAMLLRANLLKHEYHARSARKL
partner: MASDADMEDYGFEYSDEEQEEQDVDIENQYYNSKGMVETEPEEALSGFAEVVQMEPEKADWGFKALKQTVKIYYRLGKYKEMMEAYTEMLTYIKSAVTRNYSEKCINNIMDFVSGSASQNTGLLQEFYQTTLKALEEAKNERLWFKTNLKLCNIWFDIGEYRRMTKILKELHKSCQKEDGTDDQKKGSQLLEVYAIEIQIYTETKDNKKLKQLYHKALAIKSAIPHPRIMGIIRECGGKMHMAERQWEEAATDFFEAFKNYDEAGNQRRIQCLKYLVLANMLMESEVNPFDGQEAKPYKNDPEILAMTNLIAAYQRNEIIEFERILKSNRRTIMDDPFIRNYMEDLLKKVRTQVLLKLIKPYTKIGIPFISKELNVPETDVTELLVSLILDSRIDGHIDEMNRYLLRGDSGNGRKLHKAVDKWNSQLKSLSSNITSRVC
B2: COP9 signalosome complex subunit 1 (Arabidopsis thaliana (Mouse-ear cress)), P45432 (parent)
chain: B1 chain
partner: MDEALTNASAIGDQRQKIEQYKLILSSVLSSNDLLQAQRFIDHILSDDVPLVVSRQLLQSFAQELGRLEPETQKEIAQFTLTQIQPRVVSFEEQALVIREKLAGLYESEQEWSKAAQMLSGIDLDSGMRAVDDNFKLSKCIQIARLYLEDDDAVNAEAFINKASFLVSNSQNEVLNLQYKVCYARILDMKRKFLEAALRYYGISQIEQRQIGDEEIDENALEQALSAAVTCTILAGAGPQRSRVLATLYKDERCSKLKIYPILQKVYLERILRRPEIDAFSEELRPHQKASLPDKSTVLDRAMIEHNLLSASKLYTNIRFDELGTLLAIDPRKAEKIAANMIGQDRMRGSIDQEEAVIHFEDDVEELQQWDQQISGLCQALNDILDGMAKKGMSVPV

Variants of: B1
Details: with csn2_arath CSN2, Q8W207
With G222R the “effect of a mutation on the interaction” value was “disrupting interaction”.

Variants of: B2
Details: with csn4_arath CSN4, Q8L5U0
In the case of G222R, the “effect of a mutation on the interaction” value is reported as “disrupting interaction”.
